For two molecules, Kd results are on record in US20140030270A1.

In test [1] the target is cynomolgus monkey PCSK9, V5-6xHIS tagged (cynomolgus monkey). Description: KinExA solution equilibrium, PCSK9-coated beads; cyno PCSK9. (In general: Kinetic exclusion samples the free partner from a solution-phase mixture.)
Test [2] has the same target. Description: SPR (Biacore 2000), antibody amine-coupled to the chip, PCSK9 as analyte, pH 7.4.
The target is the same in test [3]. Description: Biacore solution equilibrium assay, free PCSK9 measured on immobilised 21B12. Background: SPR reads the build-up and loss of mass on a sensor chip optically.

B1: 16F12 IgG4 (16F12, anti-PCSK9 huIgG4) (antibody, V domains shown)
VH: QVHLVESGGGVVQPGRSLRLSCAASGFTFNSFGMHWVRQAPGKGLEWVALIWSDGSDEYYADSVKGRFTISRDNSKNTLYLQMNSLRAEDTAVYYCARAIAALYYYYGMDVWGQGTTVTVSS
VL: QSVLTQPPSVSAAPGQKVTISCSGSSSNIGNNFVSWYQQLPGTAPKLLIYDYNKRPSGIPDRFSGSKSGTSATLGITGLQTGDEADYYCGTWDSSLSAYVFGTGTRVTVLQ
On to B1, for which the dissociation constant Kd came out at 0.016 nM in test [1] and 0.87 nM in test [2].

B2: 21B12 IgG4 (21B12, anti-PCSK9 huIgG4) (antibody, V domains shown)
VH: QVQLVQSGAEVKKPGASVKVSCKASGYTLTSYGISWVRQAPGQGLEWMGWVSFYNGNTNYAQKLQGRGTMTTDPSTSTAYMELRSLRSDDTAVYYCARGYGMDVWGQGTTVTVSS
VL: QSALTQPASVSGSPGQSITISCTGTSSDVGGYNSVSWYQQHPGKAPKLMIYEVSNRPSGVSNRFSGSKSGNTASLTISGLQAEDEADYYCNSYTSTSMVFGGGTKLTVLQ
In the case of B2, the dissociation constant (Kd) in test [3] came out at 0.011 nM; in test [2], 0.36 nM.

Broadly, the Kd is the constant that tells how readily two partners part at equilibrium.
